Test results as given in article PMC8558838 (The Journal of Experimental Medicine, 2021).

B1: full-length mouse BTLA-EGFP, on cells [mouse] / full-length WT mouse HVEM-mCherry, on cells [mouse] (parent complex)
chain 1: EKATKRNDEECPVQLTITRNSKQSARTGELFKIQCPVKYCVHRPNVTWCKHNGTICVPLEVSPQLYTSWEENQSVPVFVLHFKPIHLSDNGSYSCSTNFNSQVINSHSVTIHVRERTQNSSEHPLITVSDIPDATNASGPSTMEERPGRTWLLYTLLPLGALLLLLACVCLLCFLKRIQGKEKKPSDLAGRDTNLVDIPASSRTNHQALPSGTGIYDNDPWSSMQDESELTISLQSERNNQGIVYASLNHCVIGRNPRQENNMQEAPTEYASICVRS
chain 2: QPSCRQEEFLVGDECCPMCNPGYHVKQVCSEHTGTVCAPCPPQTYTAHANGLSKCLPCGVCDPDMGLLTWQECSSWKDTVCRCIPGYFCENQDGSHCSTCLQHTTCPPGQRVEKRGTHDQDTVCADCLTGTFSLGGTQEECLPWTNCSAFQQEVRRGTNSTDTTCSSQVVYYVVSILLPLVIVGAGIAGFLICTRRHLHTSSVAKELEPFQEQQENTIRFPVTEVGFAETEEETASN
B2: hCD160-6×His tag protein [human] / WT hHVEM (L39-V202) fused with a PD-L1 transmembrane domain and EGFP, on cells [human] (parent complex)
chain 1: GCINITSSASQEGTRLNLICTVWHKKEEAEGFVVFLCKDRSGDCSPETSLKQLRLKRDPGIDGVGEISSQLMFTISQVTPLHSGTYQCCARSQKSGIRLQGHFFSILFTETGNYTVTGLKQRQHLEFSHNEGTLS
chain 2: LPSCKEDEYPVGSECCPKCSPGYRVKEACGELTGTVCEPCPPGTYIAHLNGLSKCLQCQMCDPAMGLRASRNCSRTENAVCGCSPGHFCIVQDGDHCAACRAYATSSPGQRVQKGGTESQDTLCQNCPPGTFSPNGTLEECQHQTKCSWLVTKAGAGTSSSHWV
B3: full-length mouse LIGHT, on cells (mLIGHT-IRES-EGFP) [mouse] / full-length WT mouse HVEM-mCherry, on cells [mouse] (parent complex)
chain 1: MESVVQPSVFVVDGQTDIPFRRLEQNHRRRRCGTVQVSLALVLLLGAGLATQGWFLLRLHQRLGDIVAHLPDGGKGSWEKLIQDQRSHQANPAAHLTGANASLIGIGGPLLWETRLGLAFLRGLTYHDGALVTMEPGYYYVYSKVQLSGVGCPQGLANGLPITHGLYKRTSRYPKELELLVSRRSPCGRANSSRVWWDSSFLGGVVHLEAGEEVVVRVPGNRLVRPRDGTRSYFGAFMV
chain 2: B1 chain 2
B4: mouse CD160 (30I-154H) with C-terminal …, biotinylated [modified: biotin; biotin] [mouse] / full-length WT mouse HVEM-mCherry, on cells [mouse] (parent complex)
chain 1: IHVTSSASQKGGRLDLTCTLWHKKDEAEGLILFWCKDNPWNCSPETNLEQLRVKRDPETDGITEKSSQLVFTIEQATPSDSGTYQCCARSQKPEIYIHGHFLSVLVTGNHTEIRQRQRSHPDFSH
chain 2: B1 chain 2

Variants of: B1
Assay: flow cytometry, cell–cell method

ratio to parent | Variant
0.9 | chain 2 S30H
1 | chain 2 S30A
0.8 | chain 2 S30D
1.1 | chain 2 H48R
1.1 | chain 2 H48D
0.1 | chain 2 G34R
0.3 | chain 2 G34D
1 | chain 2 G34A
0.9 | chain 2 L52R
0.8 | chain 2 L52D
1 | chain 2 L52A
0.8 | chain 2 V36D
1 | chain 2 V36A
0.9 | chain 2 H96D
1 | chain 2 E8A
0.7 | chain 2 E8R
0.9 | chain 2 K26A
1 | chain 2 K26D
0.4 | chain 2 P17A
1.1 | chain 2 L56D

ratio to parent | Variant
1 | chain 2 L56A
1 | chain 2 G51D
0.9 | chain 2 T99D
1 | chain 2 T99A
1.2 | chain 2 R5D
0.7 | chain 2 R5A
1.2 | chain 2 M18A
1 | chain 2 M18D
1.2 | chain 2 K77D
1.3 | chain 2 K77A
0.9 | chain 2 N50D
1.1 | chain 2 N50A
0.5 | chain 2 T35A
0.1 | chain 2 T35D
1.3 | chain 2 A49D
1.2 | chain 2 A38W
1.2 | chain 2 A38D
1 | chain 2 S98A
1 | chain 2 S98D

Variants of: B1
Assay: flow cytometry, cell–cell method; read off a plot

ratio to parent | Variant
~0.88 | chain 2 H48A, chain 2 L52A
~1.1 | chain 2 H48D, chain 2 L52D
~1.4 | chain 2 H48D, chain 2 L52R
~1 | chain 2 H48D, chain 2 L52A
~0.06 | chain 2 G34A, chain 2 V36D
~0.07 | chain 2 G34D, chain 2 V36A
~0.06 | chain 2 G34D, chain 2 V36D
~0.05 | chain 2 G34D, chain 2 V36R
~0.06 | chain 2 G34R, chain 2 V36A
~1.2 | chain 2 H48R, chain 2 L52A

Variants of: B2
Assay: flow cytometry on cells stained with soluble protein

ratio to parent | Variant
0.9 | chain 2 G51A
1.1 | chain 2 E77A
1.3 | chain 2 L49A
0.8 | chain 2 N50A

Variants of: B3
Assay: flow cytometry, cell–cell method

ratio to parent | Variant
1.1 | chain 2 K26D
1 | chain 2 K26A
1 | chain 2 E8R
0.9 | chain 2 E8A
0.4 | chain 2 G51D
1.2 | chain 2 G34A
0.9 | chain 2 G34D
0.6 | chain 2 G34R
1 | chain 2 V36A
0.9 | chain 2 V36D
0.9 | chain 2 S98A
0.8 | chain 2 S98D
0.5 | chain 2 N50D
0.5 | chain 2 N50A
1.1 | chain 2 R5D
0.5 | chain 2 R5A
0.7 | chain 2 H96D
0.6 | chain 2 L56D
0.8 | chain 2 L56A
1.1 | chain 2 A38D

ratio to parent | Variant
0.9 | chain 2 A38W
0.8 | chain 2 S30D
1 | chain 2 S30A
1.1 | chain 2 S30H
0.8 | chain 2 H48D
1 | chain 2 H48R
0.8 | chain 2 T99A
0.7 | chain 2 T99D
0.9 | chain 2 M18D
1.2 | chain 2 M18A
0.8 | chain 2 P17A
1.8 | chain 2 K77A
1.4 | chain 2 K77D
0.7 | chain 2 L52A
0.4 | chain 2 L52R
0.4 | chain 2 L52D
0.3 | chain 2 T35D
0.7 | chain 2 T35A
1.2 | chain 2 A49D

Variants of: B3
Assay: flow cytometry, cell–cell method; read off a plot

ratio to parent | Variant
~0.87 | chain 2 G34D, chain 2 V36D
~1.3 | chain 2 G34D, chain 2 V36R
~1.1 | chain 2 G34D, chain 2 V36A
~0.3 | chain 2 H48R, chain 2 L52A
~0.25 | chain 2 H48D, chain 2 L52D
~0.37 | chain 2 H48D, chain 2 L52R
~0.24 | chain 2 H48D, chain 2 L52A
~1.1 | chain 2 G34A, chain 2 V36D
~1.2 | chain 2 G34R, chain 2 V36A
~0.28 | chain 2 H48A, chain 2 L52A

Variants of: B4
Assay: flow cytometry, cell–protein method

ratio to parent | Variant
1.1 | chain 2 S98A
1.1 | chain 2 S98D
0.1 | chain 2 E8R
0.1 | chain 2 E8A
0.6 | chain 2 M18A
0.1 | chain 2 M18D
0.2 | chain 2 R5A
0.1 | chain 2 R5D
0.1 | chain 2 V36D
1 | chain 2 V36A
0.6 | chain 2 K26D
0.7 | chain 2 K26A
0.1 | chain 2 T35A
0.1 | chain 2 T35D
0.9 | chain 2 L56D
1 | chain 2 L56A
0.1 | chain 2 G34R
0.1 | chain 2 G34D
0.1 | chain 2 G34A
1 | chain 2 H48R

ratio to parent | Variant
1.1 | chain 2 H48D
1.1 | chain 2 K77A
0.6 | chain 2 K77D
1.1 | chain 2 T99A
1.3 | chain 2 T99D
0.9 | chain 2 S30A
0.6 | chain 2 S30H
0.8 | chain 2 S30D
0.9 | chain 2 L52D
0.9 | chain 2 L52A
0.8 | chain 2 L52R
0.7 | chain 2 A49D
0.1 | chain 2 P17A
0.1 | chain 2 A38D
1.1 | chain 2 A38W
1 | chain 2 H96D
0.3 | chain 2 G51D
0.1 | chain 2 N50D
0.1 | chain 2 N50A

Variants of: B4
Assay: flow cytometry, cell–protein method; read off a plot

ratio to parent | Variant
~0.66 | chain 2 H48D, chain 2 L52R
~0.76 | chain 2 H48D, chain 2 L52D
~1.4 | chain 2 H48A, chain 2 L52A
~0.01 | chain 2 G34R, chain 2 V36A
~0.01 | chain 2 G34D, chain 2 V36A
~0.01 | chain 2 G34D, chain 2 V36D
~0.01 | chain 2 G34D, chain 2 V36R
~0.01 | chain 2 G34A, chain 2 V36D
~1 | chain 2 H48R, chain 2 L52A
